Experimental data published in patent US12351833B2, “Unspecific peroxygenase enzyme variants for selective fatty acid epoxidation or hydroxylation” (CONSEJO SUPERIOR DE INVESTIGACIONES CIENTÍFICAS (CSIC), priority 2019, dated 2025).

Tests used:
Type in all cases: biochemical
[1] = Reaction of UPO enzyme with α-linolenic acid and H2O2, products analysed by GC-MS; settings: for Conversion of α-linolenic acid: 30° C., 50 mM phosphate pH 5.5, 30 min
Protocol: (§1) Chromatographic analyses were carried out in a gas chromatograph coupled to a mass-spectrometry detector. The column used was a fused-silica DB-5HT capillary column (30 m×0.25 mm internal diameter×0.1 μm film thickness). Oven was heated from 120° C. (1 min) to 300° C. (5 min) at 5° C.·min. Injection was performed at 300° C. and transfer line was maintained at 300° C. Compounds were identified by comparison of their mass spectra with those of authentic standards and those from the NIST and Wiley libraries as well as by mass fragmentography. Quantification of the products was carried out by integrating the total ion peak areas, using external standard curves of the same or closely related compounds.
Reactions were performed in an embodiment consisting of rMroUPO (0.2 μM), incubated with α-linolenic acid (100 μM) and H2O2 (1,250 μM) at 30° C., in 50 mM phosphate, pH 5.5, for 30 min. Extraction and separation of the reaction products was carried out as described in Example 3. Since no available commercial standards of epoxidized α-linolenic acid were available, they were chemically synthesised as follows: a solution of peracetic acid (1.8 mmol, 3.6 equiv) and NaOAc (0.7 mmol; 1.4 equiv) was added to α-linolenic acid (0.5 mmol) using a syringe pump at 0° C. for 1 h. The mixture was stirred at 0° C. for an additional h. Products were recovered by liquid-liquid extraction with t-butyl-methyl-ether, resulting in a mixture of mono- and di-epoxides. Identification of the compounds was made by comparison of the mass spectra with those of the synthesised standards and by mass fragmentography. Quantification was carried out as detailed in Example 3.
Reactions and analyses of the products were performed as in Example 8. FIG. 7 illustrates a chromatogram of the reaction products, among which single epoxides, di-epoxides and other epoxidized derivatives. Conversion of the substrate attained 97%, of which 92% (of which 88% are di-epoxides) represented only epoxides and a mere 8% other epoxide derivatives. Therefore, the selectivity towards only epoxidation reached 11.50.

[2] = Reaction of UPO enzyme with linoleic acid and H2O2, products analysed by GC-MS; settings: for Conversion of linoleic acid / selectivity towards only epoxidation (ratio between only epoxides and other oxygenation products) / share of products that are hydroxylated epoxides / share of products that are only epoxides: enzyme 0.6 μM, linoleic acid 100 μM, H2O2 1,250 μM; for Conversion of linoleic acid: 30° C., 50 mM phosphate pH 5.5, 30 min, 20% acetone; for selectivity towards only epoxidation (ratio between only epoxides and other oxygenation products) / share of products that are hydroxylated epoxides / share of products that are only epoxides: pH 5.5, 30° C., 30 min
Protocol: as §1
An embodiment was designed in which rMroUPO (0.6 μM) was incubated with linoleic acid (100 μM, previously dissolved in acetone so that the final acetone concentration in the embodiment was of 20%) and H2O2 (1,250 μM) at 30° C. in 50 mM phosphate, pH 5.5, for 30 min. Identification and quantification of the products was conducted as detailed in Example 3.
Reactions were performed as in Example 6. Identification and quantification of the products is described in Example 3.

[3] = Reaction of UPO enzyme with oleic acid and H2O2, products analysed by GC-MS; settings: for Conversion of the substrate (oleic acid) into products / selectivity towards only epoxidation (ratio between only epoxides and other oxygenation products) / share of products that are only epoxides / share of products that are other (hydroxylated) epoxides / epoxidation activity / epoxidized species detected (words): enzyme 0.2 μM, oleic acid 100 μM, H2O2 2,500 μM; for Conversion of the substrate (oleic acid) into products: 30° C., 50 mM phosphate pH 5.5, 30 min, 20% acetone; for selectivity towards only epoxidation (ratio between only epoxides and other oxygenation products) / share of products that are only epoxides / share of products that are other (hydroxylated) epoxides / epoxidation activity / epoxidized species detected (words): pH 5.5, 30° C., 30 min
Protocol: The rMroUPO (0.2 μM) was incubated with oleic acid (100 μM) and H2O2 (2,500 μM) at 30° C. in 50 mM phosphate, pH 5.5, for 30 min. Oleic acid had been previously dissolved in acetone so that the final acetone concentration attained 20% (v/v) in the embodiment. After the incubation time, the products were recovered by liquid-liquid extraction with t-butyl-methyl-ether. The organic solvent was removed under N2 current. N,O-Bis-(trimethylsilyl)trifluoroacetamide was employed to prepare the trimethylsilyl derivatives of the compounds to be separated by gas chromatography and identified by mass spectrometry.
as §1
Reactions with oleic acid and identification and quantification of the products were conducted as explained in Example 3.
The rMroUPO I153F/S156F mutated variant (SEQ ID NO: 3), in which isoleucine 153 and serine 156 were both replaced by phenylalanine residues, was constructed by site-directed mutagenesis, in a PCR reaction in which the following oligos—complementary to the region of the gene to be mutated, but bearing the desired mismatches—were used as primers: 5′-[…]-3′ (SEQ ID NO: 8), along with its reverse complementary counterpart. PCR reaction and sequencing of the mutated variant were carried out as described in Example 4. Expression, purification of the enzyme, reactions with oleic acid and GC-MS identification and quantification of the products were conducted as in Example 3.

[4] = enzyme 0.2 μM, α-linolenic acid 100 μM, H2O2 1,250 μM
[5] = α-linolenic acid 100 μM, enzyme 0.2 μM, H2O2 1,250 μM, pH 5.5, 30° C., 30 min

selectivity towards only epoxidation (ratio between only epoxides and other oxygenation products) [1, 5] | share of products that are only epoxides [1, 5] [%] | share of products that are other epoxides / other epoxide derivatives [1, 5] [%] | selectivity towards only epoxidation (ratio between only epoxides and other oxygenation products) [2] | share of products that are hydroxylated epoxides [2] [%] | share of products that are only epoxides [2] [%] | selectivity towards only epoxidation (ratio between only epoxides and other oxygenation products) [3] | share of products that are only epoxides [3] [%] | share of products that are other (hydroxylated) epoxides [3] [%] | Molecule | Conversion of α-linolenic acid [1, 4] [%] | Conversion of linoleic acid [2] [%] | Conversion of the substrate (oleic acid) into products [3] [%] | also measured
0.79 | 44 | 56 | 0.27 | 79 | 21 | 0.67 | 40 | 57 | rMroUPO: recombinant Marasmius rotula unspecific peroxygenase, SEQ ID NO: 1, encoded by SEQ ID NO: 9, expressed in E. coli (protein, Recombinant Marasmius rotula unspecific peroxygenase enzyme, rMroUPO) SAHPWKAPGPNDSRGPCPGLNTLANHGFLPRNGRNISVPMIVKAGFEGYNVQSDILILAGKIGMLTSREADTISLEDLKLHGTIEHDASLSREDVAIGDNLHFNEAIFTTLANSNPGADVYNISSAAQVQHDRLADSLARNPNVTNTDLTATIRSSESAFFLTVMSAGDPLRGEAPKKFVNVFFREERMPIKEGWKRSTTPITIPLLGPIIERITELSDWKPTGDNCGAIVLSPEL | 98 | 98 | 94 | 
 |  |  |  |  |  |  |  |  | rMroUPO I153F/S156F mutated variant: rMroUPO in which isoleucine 153 and serine 156 were both replaced by phenylalanine (SEQ ID NO: 3) (protein, Variant of the invention which comprises the SEQ ID NO 1 and the amino acid substitutions I153F and S156F) SAHPWKAPGPNDSRGPCPGLNTLANHGFLPRNGRNISVPMIVKAGFEGYNVQSDILILAGKIGMLTSREADTISLEDLKLHGTIEHDASLSREDVAIGDNLHFNEAIFTTLANSNPGADVYNISSAAQVQHDRLADSLARNPNVTNTDLTATFRSFESAFFLTVMSAGDPLRGEAPKKFVNVFFREERMPIKEGWKRSTTPITIPLLGPIIERITELSDWKPTGDNCGAIVLSPEL |  |  |  | epoxidation activity / epoxidized species detected (words) ([3]; listed as I153F/S156F mutated variant): completely abolishes the epoxidation activity; epoxidation activity / epoxidized species detected (words) ([3]; listed as I153F/S156F variant): completely abolished the MroUPO ability to epoxidize oleic acid; epoxidation activity / epoxidized species detected (words) ([3]; listed as MroUPO I153F/S156F mutated variant): No traces of epoxidized species were detected; selectivity towards hydroxylation ([3]; oleic acid, products restricted to ω-1 and ω hydroxylated, keto and carboxylic species): total towards hydroxylation
11.50 | 92 | 8 | 0.72 | 58 | 42 | 2.67 | 72 | 17 | rMroUPO I153T mutated variant: rMroUPO in which isoleucine 153 was replaced by threonine (SEQ ID NO: 2) (protein, Variant of the invention which comprises the SEQ ID NO 1 and the amino acid substitution I153T) SAHPWKAPGPNDSRGPCPGLNTLANHGFLPRNGRNISVPMIVKAGFEGYNVQSDILILAGKIGMLTSREADTISLEDLKLHGTIEHDASLSREDVAIGDNLHFNEAIFTTLANSNPGADVYNISSAAQVQHDRLADSLARNPNVTNTDLTATTRSSESAFFLTVMSAGDPLRGEAPKKFVNVFFREERMPIKEGWKRSTTPITIPLLGPIIERITELSDWKPTGDNCGAIVLSPEL | 97 | 93 | 85 | increase of epoxidation selectivity relative to rMroUPO ([1]; α-linolenic acid): 14.6 fold; share of di-epoxides among only epoxides [1, 5]: 88%; increase of epoxidation selectivity relative to rMroUPO ([2]; linoleic acid): 2.7 fold; increase of epoxidation selectivity relative to rMroUPO ([3]; oleic acid): 4 fold; ratio between stearic acid epoxide and its additionally hydroxylated derivatives (words, vs MroUPO) ([3]; oleic acid): increased
